Biological target: human BCMA-Fc (R&D system, 193-BC-050) (human) (UniProt Q02223)
Experiment: competition ELISA on coated human BCMA-Fc; antibody titrated and mixed with 200 ng/ml BAFF, bound BAFF detected, absorbance 450 nm

Sequence of human BCMA-Fc (R&D system, 193-BC-050) (human) (Q02223 1-54 limits assumed): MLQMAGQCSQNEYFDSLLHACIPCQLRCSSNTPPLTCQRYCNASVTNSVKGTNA

IC50 (read off the curve): 4 nM
B1: J6MO (antibody, INN chains, looked up, V domains shown)
VH: QVQLVQSGAEVKKPGSSVKVSCKASGGTFSNYWMHWVRQAPGQGLEWMGATYRGHSDTYYNQKFKGRVTITADKSTSTAYMELSSLRSEDTAVYYCARGAIYDGYDVLDNWGQGTLVTVSS
VL: DIQMTQSPSSLSASVGDRVTITCSASQDISNYLNWYQQKPGKAPKLLIYYTSNLHSGVPSRFSGSGSGTDFTLTISSLQPEDFATYYCQQYRKLPWTFGQGTKLEIK

Reference: patent US20210284749A1
